B1: unnamed (protein)
chain: MMAAAGSGGTSGGVSGSTGSAGAAGGATGAAGGGASSTGGFVREDAPTEMSTRAAKGKYTVKSYTSGFSGTGKDFLAGTLYYPTDADPPFASVAVVPGFTALQNSIMDWGPFLASHGIVTMTIDTLTTSDPPAQRADELMGALKSIAGENTRDGSPIKGQLDTTRQCVSGWSMGGGGTLIAASMHPELKCAVSFAAWQPTGGAMNKVPALMFEGTTDPLAAGMSQGFYDQTPDSTPKMIFEVAGASHDVANSPHNSMGIIGEYGLSWFKVYLEGDMRYKQFLLLP
B2: unnamed (protein)
chain: MFGCYGCTDGSIVSAPISTVGYSDIKVTFTRSSSGLDLGEAGIAEWSANGSTYTVIESSRSVSGAATFNLPSGAAGQSGLRVRFRVDASLSSEYYTVDTITVEGTSSGGGGGGGVQIGPDPTTSTLESSSGGSFSVQYQSVSSLSTSGFDGGRLYYPTTSGQYGGIVLCPGYTASSSSLAWWGERLASWGFIVLIIDTNSAYDQPSSRATQLMAGVAWLKARNNDSGHALYGKLRESDIAVGGHSMGGGGTLIALRDNPSLKTGFAMTPWNSSTNFSGITQPTFILGCESDSVAPNSSHSIPFYNSISSSVKKVYAEVDGASHFCPNSSDAKMGKYGIAWYKRFLDGDTRFQPWLCPSATGGN
B3: unnamed (protein)
chain: MKTSRHSTATTTLTRLARLALAAAAVLLSAAAQAQVVIFQENFNSGLGQFTASGTVSTSSGGARMQGCGGGTDGTITSSPISTVGFTNLKLSFDRTTTGLDSGEAGIAEYSVNGSTWTVIESTQSSSGRVTIALPAAAAGQAALRLRFRVNASLSSETYTVDNIPLAGTPGGNSAPGPGGTPYQRGPDPTAASLEASDGPFAVATLTVSSASGYGAGTIYYPTNTEGPFAAIAVVPGYTGTQSSIQWLGPRLASHGFVVITIDTNSLSDNPESRATQLMAALNQLVTLSNTSGHPIYGKVDSNRLGVMGHSMGGGGTLVAARDNPTLKAAIPLAPWYSSTNFSGVTVPTLVVACQSDTVAPVSSHALPMYNSIPSSTDKAYLEISGGDHLCVTTGNGNKAIQGKYVVAWMKRFLDNDTRYSPFLCGAPHQADLSGSAVSEYRDTCPY
B4: unnamed (protein)
chain: MDWPRPRCVRRRTSNGQRRSTTCRGDIPMSTRVTHSRLTLIRCLALAAPLMCLGLAQAQTSPPTSESLNARSGPLSIASENVSRLAARGFGGGTIYYPRTSGRYGLIAISPGFTATESSVAWIGEKLASHGFVAIVINTNSTLDQPSSRARQLRAALDHAISSASSTVRNRIDPSRQAVAGHSMGGGGSLIAAEDDPSLKAAFPLTPWNTSSSFTRVRVPSMIFGADGDTIAPVAVHARPFYGSIPRTTSKAYAELQSATHFAPNVRNEAIGRYGVAWMKRFMDGDTRYSTFLCGSEHDRYNTSLRFDQFQSNCPY
B5: unnamed (protein)
chain: MKHFHRFGATLFRGAAIAGPLALLGVAHAQTTAPTSASLNATAGPLSIASSTVSSLAANGFGGGTIYYPTASGRFGVVAISPGFTASQSTIEWLGRRMASHGFVVITIDTITTLDYPDSRATQLRAALDHVINRASTTVRNKVDPARRAVAGHSMGGGGSLIAAQADSTLKAAYPMTPWNITENFSRVRVPTMIIGADGDTIAPVTSHARPFYASIPNTTFKAYGELNNATHFAPNVTNTPIGRYGVAWMKRFVDGDTRYSTFLCGAEQNRYNTSLVFDQYRSNCPY
B6: unnamed (protein)
chain: MKTLFKAAVLCGAMLTSLGVLAQANPYQKGPDPTVSNLEAARGSFAVSSTSISGLSATGFGGGSLHYPTAAGSYGLIAVAPPYLAQSSSIAWLGPRLASHGFVVVMIDVNSTLDFPESRSRQQLAAIDYAIAQSARTTSPIYRKVDTTRRGVSGHSMGGGASILTARNAPANIKGAFPLTPWSSDKNFSSLQVPTGYLACESDTVAANADHSLNFYNRMPASTPKGYYELRGESHFCPQSTANNPVIGKYLVAWMKRFVDNDTRFSPFLSGALPNADLSSRRFSALRTSGL
B7: unnamed (protein)
chain: MSLDVWEWSTEAGGDIRQWDYLGADNQKWRINDLGNGYHSIISAYNGLSLDVYEWSTSNGGDIRQWDYTGAENQQWAFQPTGTSGGGSTGGGSTSCVSSSDITSSKLSATGASGPYSVRSKGVSNWSASGFGGGTIWYPTNASACGRMPGIAVVPGFLSYESSIRWWGARLASWGYVVITIDTNSIYDQPPSRGRQLSDALDHIIYDSTTRNMVDPNRLGAIGWSMGGGGSIWLANNRPEVKAIIPQAPWYLTTTSTSKPAFYIACESDTVAPTYSHVDDFYRYSTGPKMKIEINNGSHWCANSGNGNEGTLGKAGISWMKRYINGDTRFNQFLCGQENYGSRYDVSDYDYASCP
B8: unnamed (protein)
chain: MTEKDTSMKFFQATLSLTVGVLLTTALSGTALAESAYLRGPAPTVASVEAPAGPYQVTSQVMKDPVGYKAGTVFYPSDAQGQSFGLIVVAPGFIETQSWNAWWAQYLASHGFVVINIDTQSTLEFPAARAKEELAALNDVVRRSTQPDSPLFGLVDASRQGAMGHSMGGGATLEIAKANPYLKAIVPMAPFQTSGTDYSKLTVPTLIMACKGDVVATASSHSEPIYKSLSPSLDKAYLEMQGGAGHPCTTSVGTSDKVRTLAGKYGLAWFKRFLDEDTRYSQFLCGIPHGLDMFGKVISGYKGNCPY
B9: unnamed (protein)
chain: MKTTTIIKSTLCAFTLTFSLSAFSGGGGGGGGGNNGNLPPPDTCNTNCGYEIGPNPTLGFLQASQGPLPVSSTNVSSSVNGFGGGTIYYPSNISDEMAAISIAPGFTNTQSAVAWWGPILASHGFVVITINTNSRFDQPESRSRQLDSALSYLISEGDRGSSPISGLVDENRLATMGFSMGGGGSLRSASRNRLSAAVPLAPWSTGSNNFDDIGVPTLIMACENDTTARVNTHASPFYNAIPGSTDKAFMEINNGPHNCANGESSTNRSLLSTYGVSWMKRFLDKDRRYNQFLCGPNHEANSRISEYRDTCSYG
B10: unnamed (protein)
chain: MIKDFLLSRVVIVAGTLIFSMPTLAEITVSETTVVIPKEALPVPTLSNCITDSAITADALSDTRDNGPFTVSTKRVPRQSANGFGGGTIHYPTNASGCGLLGGIAVVPGYVSYESSIKWWGPRLASWGFVVITINTNHISDNPDSRATQLNAALDHLLLDSTVANMVDRDRLGVIGWSMGGGGALRLATDRSTVRAIIAQTPYHDTSYPTMDTPALFIACENDRIAPNKKYTNVFYNNATGPKMKVEVSNGSHFCASHGFHEILLSKPGIAWMQRYINGDTRFDQFLCSSENYNSSPRISSYNYKNCL
B11: unnamed (protein)
chain: MRHRSISALVLGTAVVAGAAQAQINPFAKGPDPTPASIQATGPFAISMQTVPRAAGFGGATVYSPNDPGSYALVVLCPGFIETQSAISAVGQRLATHGFVVATIDTVTTIDFPASRGTQLIAALQTITALNTGPVAGKIDTTRLVVGGHSMGGGGTLEASRTNPAIKAGLPIAPFHFVKQFNTPVPQLITGGQVDAIAPVGQHAIPFFEMLPDATPKIYAELTGGNHFFVTQNPPNQPINKLLLAWTKRFADNDLRYEQFITATAVQAEVANGALSQTRREATPF
B12: unnamed (protein)
chain: MERGNHRAKWAIGFGLLLLGAAAHSQTNPYQKGPDPTSATLNATSGSFAVATSTVSSLAANGFGGGTIYYPTQTGTYAVLAISPGFTATQSSIAWLGRRISTHGFVVITIDTNSTLDQPPSRATQLMAALRHVTDLSSSTVRSRVDASRRGVAGHSMGGGGTLIAARDNPSLKAAVPLTAWSTTKIFSTVQVPTLVVGAESDSVAPVSSHSIPFYNSLSNSLDKAYAELNNASHFAPNSTNTPIGRYSVAWVKRFMDNDTRYTPFLCGTPHTSYATSTVFSDYRSTCPY
B13: unnamed (protein)
chain: MTTKRHRTATTPTRRARLALLAAATLLSFAAQAQVVIFQENFNSGLGQFTASGTVSTSSGGAVMQGCYNCTDGAITSKPISTVGFTNLKLSYDRTTTGLDSGEYGVAAYSVNGGAWTVIESIQSSSGRVTIALPAAAANQASLRLRFRVNASLSAETFTVDNVVLEGTPGGAPGPGGNPYQKGPDPTAAALEASAGPFTVATTTVSASSASGYGGGTIYYPTNVAGPFAAIAVVPGYTATQSSISWWGPRLASHGFVVITIDTNSTSDLPASRATQLMAALNQLKTFSATSGHAIYGKVDPNRLGVMGWSYGGGGTLIAARDNPTLKAAIPLAPKTSSGTDFSGITVPTLIVGCESDTTAPVSSWAIPFYNSIPASTKKAYLEINNGDHFCVTTSNSSADKAILGKYGVAWMKRFLDNDTRYSPFLCGAPHQADLSGNAAISEYRDNCPY
B14: unnamed (protein)
chain: MISNRRAPARRAGAALTALALAVVLAACDIRGPAPTEQILEAPSGPFAVGSVAVPSSAGFGGGTIYYPSEAAGPFGIIAVTPGFLGNQTSIGTWGPRLASHGFVTITINTTGGFILPDQRSAEQRQALTYVVNQGNRSSSPIFGKVDGDRKGVAGHSMGGGGTLVSAREDPTIRAAVPFAPWYTSTNFSNVTVPTLIVACQSDGVAPVASHASPFYNSIPATTDKSYISVAGADHFCANSPTGGANDVGKYVVAFFKRFVDGDTRYDPWVCG

Substrate: BHET
Conditions: 120 h

Protein	plate clearing
B1	not clears the plate
B2	not clears the plate
B3	clears the plate (z > 3 vs empty vector)
B4	not clears the plate
B5	not clears the plate
B6	not clears the plate
B7	not clears the plate
B8	not clears the plate
B9	not clears the plate
B10	not clears the plate
B11	not clears the plate
B12	not clears the plate
B13	not clears the plate
B14	not clears the plate

From the PETadex activity labels
